Data taken from the supplement of paper PMC9170038.

Tested on: MS2 coat protein
Assay: apparent KD of MS2 coat protein; designed switch direction (-1 OFF switch, 1 ON switch): 1; higher = weaker reporter binding
Outline: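 Designed RNA switches were transcribed on Illumina chips by stalled E. coli RNA polymerase and titrated with SNAP-549-labelled MS2 coat protein from 0.7 or 1.5 nM, doubling to 3 µM. Step length ran from 0.8–1.5 h at the lowest concentration to 10–20 min at the highest. The apparent KD is the median over clusters for each design, from curve-fitted normalised cluster fluorescence.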

[1] = Eterna round: R95, input ligand: FMN 200 uM
[2] = Eterna round: R95, input ligand: microRNA oligo, concentration not stated
[3] = Eterna round: R95, input ligand: none
[4] = input ligand: microRNA oligo, concentration not stated

Sequence | apparent KD of MS2 coat protein [1] [nM] | apparent KD of MS2 coat protein [2] [nM] | apparent KD of MS2 coat protein [3] [nM] | apparent KD of MS2 coat protein (input ligand: FMN 200 uM) [nM] | apparent KD of MS2 coat protein [4] [nM] | apparent KD of MS2 coat protein (input ligand: none) [nM]
GGAGAGAGAGCGCAGGAUAUUUAAGGAGAAACAUGAGGAUCACCCAUGUGAGAGAGAGAGGAGAGAGAGAAGGGUGAGAGAGAGG [Altered State 2-16 - Jieux - Same State 2] (puzzle: Same State 2) | 26.7 | 23.9 | 36.2 |  |  | 
GGAGCCAAGGCAGGAUAUUCAUAUUAAAUACAUGAGGAUCACCCAUGUUAGGCCAGAAGGCCUUGGGAGAAGGGCCAUGGCUCG [Xeonanis - 13 mod20] (Eterna round: R96, puzzle: Same State NG 2) |  |  |  | 17 | 34.1 | 52.5
GGAGCCAAGGCAGGAUAUUCAUAUUAAAUGACAUGAGGAUCACCCAUGUUGGCCAGAAGGCCAUGGGAGAAGGGCCAUGGCUCG [Xeonanis - 13 mod23] (Eterna round: R96, puzzle: Same State NG 2) |  |  |  | 41.3 | 127 | 166
GGAGCCAAGGCAGGAUAUUCAUUAUAAAUAACAUGAGGAUCACCCAUGUUGGCCAGAAGGCCAUGGGAGAAGGGCCAUGGCUCG [Xeonanis - 13 mod24] (Eterna round: R96, puzzle: Same State NG 2) |  |  |  | 17.7 | 73.7 | 105
GGAGCCGGCACCGAGGAUAUUCAUAUUAAAACAUGAGGAUCACCCAUGUACCGGAGAACCGGUUGGGAGAAGGCGGAUCGGCUCG [Xeonanis - 24] (puzzle: Same State 2) | 35.4 | 333 | 596 |  |  | 
GGAGCCGGCCUAGGAUAUUUCAUAAAAACACAUGAGGAUCACCCAUGUAGGCCAGAAGGCCUUGGGAAGAAGGAGGUCGGCUCC [Loop Effect - C29] (Eterna round: R96, puzzle: Same State NG 2) |  |  |  | 10.6 | 18.3 | 23.6
GGAGCCGGCCUAGGAUAUUUCAUAAAAAUACAUGAGGAUCACCCAUGUAGGCCAGAAGGCCUUGGGAAGAAGGAGGUCGGCUCC [Loop Effect - U29] (Eterna round: R96, puzzle: Same State NG 2) |  |  |  | 10.7 | 15 | 17.3
GGAGCCGGCCUAGGAUAUUUCAUGAAAAAACAUGAGGAUCACCCAUGUAGGCCAGAAGGCCUUGGGAAGAAGGAGGUCGGCUCC [Loop Effect - G24] (Eterna round: R96, puzzle: Same State NG 2) |  |  |  | 32.1 | 151 | 472
GGAUGACGGACAGGAUAUUGAUUCUAAUGGUUUCAAGAAGGGUCUUCGAUAUAAACGACCAGUUACAUGAGGAUCACCCAUGUU [JR_SSNG1_Sub033] (Eterna round: R96, puzzle: Same State NG 1) |  |  |  | 25.9 | 66 | 45
GGAUGAUAAAUAGGAUAUUAAUUGUAAUUAGGUUAAGAAGGAUUAAUGAUUUAAACGACCAGUUACAUGAGGAUCACCCAUGUU [JR_SSNG1_Sub088] (Eterna round: R96, puzzle: Same State NG 1) |  |  |  |  | 108 | 
GGAUGAUAGACAGGAUAUUGAUUGUAAUUAGGACAAGAAGGGUCAAUGAUUUAAACGACCAGUUACAUGAGGAUCACCCAUGUU [JR_SSNG1_Sub026] (Eterna round: R96, puzzle: Same State NG 1) |  |  |  | 55.7 | 34 | 55.3
GGCCAGAGUCAAGGAUAUGCUACCGUUUCGGUAGCAGAAGGUGAUCACAUGAGGAUCACCCAUGUAUACGCUGGGAAGCGGGCC [JL SSNG1 3.65] (Eterna round: R96, puzzle: Same State NG 1) |  |  |  | 163 | 155 | 119
GGCGUAUAAACAUGAGGAUCACCCAUGUUGCGGAGACGCAAUGAGGAUAUCGAUGGGUUUCCCGUCGAGAAGGCGUGGGUCGCC [JL SSNG3 3.95] (Eterna round: R96, puzzle: Same State NG 3) |  |  |  | 22.3 | 24.6 | 40.2
GGGAGACCUCAAGGAUAUGCUACCGUUUCGGUAGCAGAAGGUGAUCACAUGAGGAUCACCCAUGUAUGCAUGCGUGAGCGUGCU [JL SSNG1 3.58] (Eterna round: R96, puzzle: Same State NG 1) |  |  |  | 79.4 | 11.6 | 67.8
GGUACAAAUACAGGAUAUGCUAUCCUUUGGGUAGCAGAAGGGUGGUAACAUGAGGAUCACCCAUGUGUGCCAGGGCGUGAGCCC [JL SSNG1 1.98] (Eterna round: R96, puzzle: Same State NG 1) |  |  |  | 387 | 206 | 657
GGUAGGUUACUACCAAACAUGAGGAUCACCCAUGUAAGUGGGAAGGAUAUGGUACCUAUUUGGUACCAGAAGGUCCAAUUAAUU [Fiskers NG3ss - 3] (Eterna round: R96, puzzle: Same State NG 3) |  |  |  | 228 | 111 | 720
GGUAGGUUACUACCAAACAUGAGGAUCACCCAUGUAAGUGGGAAGGAUAUGGUACCUUUUAGGUACCAGAAGGUCCAUAUAAUU [JL Fiskers NG3ss - 2 mod 6] (Eterna round: R96, puzzle: Same State NG 3) |  |  |  | 177 | 2450 | 3220
GGUAGGUUACUACCAACACAUGAGGAUCACCCAUGUUUUGGGAAGGAUAUGGUACCUAUUUGGUACCAGAAGGUCCAGUUAAUG [salish99_SSNG3_r04_701] (Eterna round: R96, puzzle: Same State NG 3) |  |  |  | 87 | 161 | 122
GGUAGGUUACUACCAACACAUGAGGAUCACCCAUGUUUUGGGAAGGAUAUGGUACCUAUUUGGUACCAGAAGGUCCAGUUAAUU [Fiskers NG3ss - 17] (Eterna round: R96, puzzle: Same State NG 3) |  |  |  | 47.4 | 66.6 | 69.5
GGUAGGUUACUACCAAUACAUGAGGAUCACCCAUGUUAUCAUGAGGAUAUGGUACCUAUUUGGUACCAGAAGGCAUGUAUAAUU [Fiskers NG3ss - 19] (Eterna round: R96, puzzle: Same State NG 3) |  |  |  | 43.6 | 62.6 | 60.5
GGUAGGUUACUACCAAUCUACAUGAGGAUCACCCAUGUGUAGGAGGAUAUGGUACCUAUUUGGUACCAGAAGGCCUAAUUAAUU [Fiskers NG3ss - 9] (Eterna round: R96, puzzle: Same State NG 3) |  |  |  | 117 | 96.7 | 111
GGUAUCGGCACAGGAUAUGCUAUCCUUUGGGUAGCAGAAGGGUGGACAUGAGGAUCACCCAUGUAGGUGCCAGGGCGUGAGCCC [JL SSNG1 1.87] (Eterna round: R96, puzzle: Same State NG 1) |  |  |  | 2490 | 26.3 | 3550
GGUCCAGCCUGAGCUGGACAAGAGCAUGUACAUGAGGAUCACCCAUGUCAUGUACAAGCUUUUUGCUCGUCUUAAAA [JL mod - D87 - 2] (puzzle: Sensor for hsa-mir-208a) | 433 | 14.5 | 540 |  |  | 
GGUCCAGCGAGAGCUGGACAAAAGCAUGUACAUGAGGAUCACCCAUGUCAUGUACAAGCUUUUUGCUCGUCUUAAAA [Mat - Sensor - JL mod - D88] (Eterna round: R96, puzzle: Sensor for hsa-mir-208a) |  |  |  | 556 | 12.9 | 486
GGUCCAUCAUGAGGAUAUGGCACCUUAUUGGUGCCAGAAGGCAUGUAAAUUAUAAUAAAACAUGAGGAUCACCCAUGUUGGACC [Eli NG1ss - 97] (Eterna round: R96, puzzle: Same State NG 1) |  |  |  | 857 | 19.5 | 78.4
GGUCGGAACCACAUGAGGAUCACCCAUGUUCCGGAAACGGCGCAGGAUAUCUGUCCGAAAAGGUCAGAGAAGGGUGAACCGACC [Fiskers NG3ss - 78] (Eterna round: R96, puzzle: Same State NG 3) |  |  |  | 462 | 314 | 236
GGUCGGACUCACAUGAGGAUCACCCAUGUUGCGGAAACGCGACAGGAUAUCUGUCCGAAAAGGUCAGAGAAGGGUCAACCGACC [Fiskers NG3ss - 58] (Eterna round: R96, puzzle: Same State NG 3) |  |  |  | 853 | 431 | 504
